{"source": "patent US20050070470A1", "about": "(ADMINISTRATORS OF THE TULANE EDUCATIONAL FUND, published 2005)", "note": "Bridges are numbered along the chain shown (N, C = ends). Where no end group is shown, it is not given here. [ ]: non-standard residue; d: D form. The star is where a group is joined. DOTA = O=C(O)CN1CCN(CC(=O)O)CCN(CC(=O)*)CCN(CC(=O)O)CC1"}
{"molecular_target": "somatostatin subtype 2 rat receptor (rat, UniProt P30680 1-369)", "sequence (P30680 whole entry)": "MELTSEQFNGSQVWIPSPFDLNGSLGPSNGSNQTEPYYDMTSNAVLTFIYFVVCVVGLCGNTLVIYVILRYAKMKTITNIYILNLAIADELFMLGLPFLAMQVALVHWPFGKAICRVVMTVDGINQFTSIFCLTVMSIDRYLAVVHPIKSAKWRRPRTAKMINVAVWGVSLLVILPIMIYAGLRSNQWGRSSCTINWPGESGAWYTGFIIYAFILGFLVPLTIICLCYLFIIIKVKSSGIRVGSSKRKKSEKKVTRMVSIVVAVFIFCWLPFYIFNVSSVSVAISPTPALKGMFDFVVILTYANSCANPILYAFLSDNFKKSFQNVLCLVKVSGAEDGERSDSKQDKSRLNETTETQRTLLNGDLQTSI", "test": "cell-based or functional assay", "units": {"IC50 (nM), inhibition of GH release from primary cultures of rat pituitary cells": "nM"}}
{"binder": "[dS][dS][dS][dS][dS][dS][dS][dS][dS][dS]K[dY][dY]CF[dW]KTCT-NH2 (disulfide 14-19; N-terminus assumed; SMILES C[C@@H](O)[C@H](NC(=O)[C@@H]1CSSC[C@H](NC(=O)[C@@H](Cc2ccc(O)cc2)NC(=O)[C@@H](Cc2ccc(O)cc2)NC(=O)[C@H](CCCCN)NC(=O)[C@@H](CO)NC(=O)[C@@H](CO)NC(=O)[C@@H](CO)NC(=O)[C@@H](CO)NC(=O)[C@@H](CO)NC(=O)[C@@H](CO)NC(=O)[C@@H](CO)NC(=O)[C@@H](CO)NC(=O)[C@@H](CO)NC(=O)[C@H](N)CO)C(=O)N[C@@H](Cc2ccccc2)C(=O)N[C@H](Cc2c[nH]c3ccccc23)C(=O)N[C@@H](CCCCN)C(=O)N[C@@H]([C@@H](C)O)C(=O)N1)C(N)=O)", "IC50 (nM), inhibition of GH release from primary cultures of rat pituitary cells": 0.12}
{"binder": "[dS][dS][dS][dS][dS]K[dS][dS]CF[dW]KTCT-NH2 (disulfide 9-14; N-terminus assumed; SMILES C[C@@H](O)[C@H](NC(=O)[C@@H]1CSSC[C@H](NC(=O)[C@@H](CO)NC(=O)[C@@H](CO)NC(=O)[C@H](CCCCN)NC(=O)[C@@H](CO)NC(=O)[C@@H](CO)NC(=O)[C@@H](CO)NC(=O)[C@@H](CO)NC(=O)[C@H](N)CO)C(=O)N[C@@H](Cc2ccccc2)C(=O)N[C@H](Cc2c[nH]c3ccccc23)C(=O)N[C@@H](CCCCN)C(=O)N[C@@H]([C@@H](C)O)C(=O)N1)C(N)=O)", "note": "[D-Ser-D-Ser-D-Ser-D-Ser-D-Ser-L-Lys-D-Ser-D-Ser-cyclo[L-Cys-L-Phe-D-Trp-L-Lys-L-Thr-L-Cys]-L-Thr-NH2]", "IC50 (nM), inhibition of GH release from primary cultures of rat pituitary cells": 3.29}
{"binder": "{DOTA}-[dS][dS][dS][dS][dS][dS][dS][dS][dS][dS]K[dY][dY]CF[dW]KTCT-NH2 (disulfide 14-19; SMILES C[C@@H](O)[C@H](NC(=O)[C@@H]1CSSC[C@H](NC(=O)[C@@H](Cc2ccc(O)cc2)NC(=O)[C@@H](Cc2ccc(O)cc2)NC(=O)[C@H](CCCCN)NC(=O)[C@@H](CO)NC(=O)[C@@H](CO)NC(=O)[C@@H](CO)NC(=O)[C@@H](CO)NC(=O)[C@@H](CO)NC(=O)[C@@H](CO)NC(=O)[C@@H](CO)NC(=O)[C@@H](CO)NC(=O)[C@@H](CO)NC(=O)[C@@H](CO)NC(=O)CN2CCN(CC(=O)O)CCN(CC(=O)O)CCN(CC(=O)O)CC2)C(=O)N[C@@H](Cc2ccccc2)C(=O)N[C@H](Cc2c[nH]c3ccccc23)C(=O)N[C@@H](CCCCN)C(=O)N[C@@H]([C@@H](C)O)C(=O)N1)C(N)=O)", "IC50 (nM), inhibition of GH release from primary cultures of rat pituitary cells": 0.71}
{"binder": "[dS][dS][dS][dS][dS][dS][dS][dS][dS][dS][dS][dS][dS][dS][dS]K[dY][dY]CF[dW]KTCT-NH2 (disulfide 19-24; N-terminus assumed; SMILES C[C@@H](O)[C@H](NC(=O)[C@@H]1CSSC[C@H](NC(=O)[C@@H](Cc2ccc(O)cc2)NC(=O)[C@@H](Cc2ccc(O)cc2)NC(=O)[C@H](CCCCN)NC(=O)[C@@H](CO)NC(=O)[C@@H](CO)NC(=O)[C@@H](CO)NC(=O)[C@@H](CO)NC(=O)[C@@H](CO)NC(=O)[C@@H](CO)NC(=O)[C@@H](CO)NC(=O)[C@@H](CO)NC(=O)[C@@H](CO)NC(=O)[C@@H](CO)NC(=O)[C@@H](CO)NC(=O)[C@@H](CO)NC(=O)[C@@H](CO)NC(=O)[C@@H](CO)NC(=O)[C@H](N)CO)C(=O)N[C@@H](Cc2ccccc2)C(=O)N[C@H](Cc2c[nH]c3ccccc23)C(=O)N[C@@H](CCCCN)C(=O)N[C@@H]([C@@H](C)O)C(=O)N1)C(N)=O)", "IC50 (nM), inhibition of GH release from primary cultures of rat pituitary cells": 0.32}
{"binder": "Ac-[dS][dS][dS][dS][dS][dS][dS][dS][dS][dS]K[dY][dY]CF[dW]KTCT-NH2 (disulfide 14-19; SMILES CC(=O)N[C@H](CO)C(=O)N[C@H](CO)C(=O)N[C@H](CO)C(=O)N[C@H](CO)C(=O)N[C@H](CO)C(=O)N[C@H](CO)C(=O)N[C@H](CO)C(=O)N[C@H](CO)C(=O)N[C@H](CO)C(=O)N[C@H](CO)C(=O)N[C@@H](CCCCN)C(=O)N[C@H](Cc1ccc(O)cc1)C(=O)N[C@H](Cc1ccc(O)cc1)C(=O)N[C@H]1CSSC[C@@H](C(=O)N[C@H](C(N)=O)[C@@H](C)O)NC(=O)[C@H]([C@@H](C)O)NC(=O)[C@H](CCCCN)NC(=O)[C@@H](Cc2c[nH]c3ccccc23)NC(=O)[C@H](Cc2ccccc2)NC1=O)", "IC50 (nM), inhibition of GH release from primary cultures of rat pituitary cells": 0.57}
